B1: H2-Kb / Ed21 (parent complex)
chain 1: AQSVTQPDARVTVSEGASLQLRCKYSYFGTPYLFWYVQYPRQGLQLLLKYYPGDPVVQGVNGFEAEFSKSNSSFHLRKASVHWSDWAVYFCAVSMSGGYKVVFGSGTRLLVSP
chain 2: DSGVVQSPRHIIKEKGGRSVLTCIPISGHSNVVWYQQTLGKELKFLIQHYEKVERDKGFLPSRFSVQQFDDYHSEMNMSALELEDSAMYFCASSPRQTDYTFGSGTRLLVI
chain 3: not shown
chain 4: IQKTPQIQVYSRHPPENGKPNILNCYVTQFHPPHIEIQMLKNGKKIPKVEMSDMSFSKDWSFYILAHTEFTPTETDTYACRVKHDSMAEPKTVYWDRDM
chain 5: SIINFEKL

Variants of: B1
Assay: % of reporter cells activated (NFAT-GFP), raw; further: test concentration or dose not given here

| ratio to parent | Variant |
| --- | --- |
| 0.664 | chain 5 S1K |
| 0.724 | chain 5 S1N |
| 1.02 | chain 5 S1A |
| 0.805 | chain 5 S1F |
| 0.954 | chain 5 S1M |
| 0.947 | chain 5 F5H |
| 1.04 | chain 5 F5C |
| 0.958 | chain 5 F5R |
| 0.939 | chain 5 F5Q |
| 0.866 | chain 5 F5W |
| 1.05 | chain 5 F5A |
| 0.952 | chain 5 F5K |
| 0.964 | chain 5 F5T |
| 0.873 | chain 5 F5G |
| 0.859 | chain 5 L8I |
| 0.685 | chain 5 L8E |
| 0.888 | chain 5 L8N |
| 0.976 | chain 5 L8Y |
| 1.03 | chain 5 L8H |
| 0.826 | chain 5 L8F |
| 0.882 | chain 5 L8C |
| 0.887 | chain 5 L8M |
| 0.783 | chain 5 L8T |
| 0.686 | chain 5 L8V |
| 0.901 | chain 5 L8K |

| ratio to parent | Variant |
| --- | --- |
| 0.872 | chain 5 I3A |
| 0.775 | chain 5 I3R |
| 0.636 | chain 5 I3G |
| 0.902 | chain 5 I3Q |
| 0.575 | chain 5 I3D |
| 0.901 | chain 5 I3S |
| 0.961 | chain 5 I3N |
| 0.99 | chain 5 I3M |
| 0.869 | chain 5 I3F |
| 0.0275 | chain 5 N4F |
| 0.162 | chain 5 N4C |
| 0.476 | chain 5 N4R |
| 0.017 | chain 5 N4W |
| 0.165 | chain 5 N4T |
| 0.498 | chain 5 N4A |
| 0.487 | chain 5 N4D |
| 0.566 | chain 5 N4K |
| 0.189 | chain 5 N4E |
| 0.47 | chain 5 N4H |
| 0.0148 | chain 5 N4Y |
| 0.389 | chain 5 N4I |
| 0.271 | chain 5 N4S |
| 0.785 | chain 5 E6G |
| 0.641 | chain 5 E6S |
| 0.845 | chain 5 E6A |

| ratio to parent | Variant |
| --- | --- |
| 0.366 | chain 5 E6Y |
| 0.964 | chain 5 E6D |
| 0.329 | chain 5 E6L |
| 0.884 | chain 5 E6N |
| 0.59 | chain 5 E6H |
| 0.593 | chain 5 E6M |
| 0.418 | chain 5 K7M |
| 0.799 | chain 5 K7I |
| 0.752 | chain 5 K7T |
| 0.785 | chain 5 K7L |
| 0.645 | chain 5 K7A |
| 0.997 | chain 5 K7H |
| 0.788 | chain 5 K7V |
| 0.0818 | chain 5 K7E |
| 0.568 | chain 5 K7Q |
| 0.605 | chain 5 K7G |
| 0.916 | chain 5 I2R |
| 0.951 | chain 5 I2F |
| 1.01 | chain 5 I2N |
| 0.964 | chain 5 I2E |
| 1.02 | chain 5 I2L |
| 0.975 | chain 5 I2P |
| 1 | chain 5 I2G |
| 0.906 | chain 5 I2K |
| 0.904 | chain 5 I2Q |
